Experimental data published in patent US6399065 (SCHERING, dated 2002).
Blank lines part the entries; values can stand above or below the molecule they belong to.

B1: SLAM-Ig (SLAM-immunoglobulin fusion protein: entire extracellular domain of human SLAM fused to the Fc portion of human IgG1 heavy chain) (Fc fusion)
chain: ASYGTGGRMMNCPKILRQLGSKVLLPLTYERINKSMNKSIHIVVTMAKSLENSVENKIVSLDPSEAGPPRYLGDRYKFYLENLTLGIRESRKEDEGWYLMTLEKNVSVQRFCLQLRLYEQVSTPEIKVLNKTQENGTCTLILGCTVEKGDHVAYSWSEKAGTHPLNPANSSHLLSLTLGPQHADNIYICTVSNPISNNSQTFSPWPGCRTDPSETKP
notes: Fluorescein conjugated for flow cytometry; also called recombinant SLAM-Ig; soluble form of SLAM (SLAM-Ig); not shown: Fc portion of the human IgG1 heavy chain
B2: human SLAM (SLAM1, encoded by pSURslam1), cell surface (receptor)
chain: RMMNCPKILRQLGSKVLLPLTYERINKSMNKSIHIVVTMAKSLENSVENKIVSLDPSEAGPPRYLGDRYKFYLENLTLGIRESRKEDEGWYLMTLEKNVSVQRFCLQLRLYEQVSTPEIKVLNKTQENGTCTLILGCTVEKGDHVAYSWSEKAGTHPLNPANSSHLLSLTLGPQHADNIYICTVSNPISNNSQTFSPWPGCRTDPSETKPWAVYAGLLGGVIMILIMVVILQLRRRGKTNHYQTTVEKKSLTIYAQVQKPGPLQKKLDSFPAQDPCTTIYVAATEPVPESVQETNSITVYASVTLPES

How the values were obtained:
[1] = target: human SLAM (SLAM1, encoded by pSURslam1), cell surface (human) (UniProt Q13291); assay: cell-based or functional assay
[2] = target: B2; assay: flow cytometry on SLAM/L cells; reference mAb A12
Description: The binding of SLAM-Ig to SLAM transfectants is specific for the SLAM portion of the molecule and not the Ig, as the staining was performed in the presence of excess IgG in the 30% human serum added. Furthermore, SLAM transfectants were not stained by other Fc containing molecules such as CD40-Ig. The binding of SLAM-Ig was about 5-fold lower than the binding to SLAM/L cells observed using an equivalent concentration of the mAb A12. […] SLAM-Ig binding to transfected cells was not inhibited by EDTA.
(§1) The A12 anti-SLAM mAb has been described. Phycoerythrin conjugated CD45RO and CD3 mAbs were purchased from Becton-Dickinson. Cells stained with mAbs, SLAM-Ig or CD40-Ig were washed three times with PBS, 2% FCS and analyzed using a FACScan (Becton-Dickinson).

[3] = target: B2; assay: flow cytometry on different SLAM-expressing cell types; reference mAb A12
Excerpt: as §1
However, SLAM-Ig did bind to EBV-transformed B-cell lines and CD4^+ T-cell clones, both cell types which we have shown to express SLAM. In no cell types tested did SLAM-Ig bind to cells not expressing SLAM. In addition, the levels of SLAM-Ig binding co-modulated with SLAM expression on CD45RO^+ T cells following activation with anti-CD3. The level of SLAM-IG staining relative to A12 staining on different cell-types was consistent with that observed on L-cell transfectants being 5-fold lower and Ca^++ independent.

[4] = target: the molecule itself; assay: SPR (BIACORE), SLAM-Ig immobilized, SLAM-Ig in solution at 100 nM to 1500 nM, 5 µl/min
Description: (§2) Ab 7D4/SLAM-Ig and SLAM-Ig/SLAM-Ig binding kinetics and affinity were measured. About 8000 resonance units (RUs) of SLAM-Ig were covalently attached to the dextran matrix in the sensor chip via its lysines, according to the manufacturers protocol (BIACORE™ manual, Pharmacia Biosensor). Buffer (phosphate-buffer saline, PBS, pH 7.0) was passed through the flow cell until all of the dissociable protein was removed and the baseline remained stable. Solutions containing various concentrations of the antibody 7D4 in PBS (ranging from 10 nM to 500 nM) were then passed through the flow cell. An increase in mass of protein bound was observed, followed by a decrease when the protein solution was replaced with buffer. A non-linear data analysis protocol, O'Shannessy, et al. (1993) *Anal. Biochem.* 212:457–468, was used to analyze the data to determine the association (k_a) and dissociation (k_d) rate constants. The equilibrium dissociation constant K_d was then calculated from the ratio k_d/k_a.
SLAM-Ig/SLAM-Ig binding kinetics were measured in a similar manner. After immobilization of SLAM-Ig to the chip, solutions of SLAM-Ig at concentrations ranging from 100 nM to 1500 nM were passed through the flow cell at a flow rate of 5 μl/min. From the association and dissociation phases, the corresponding rate constants and thus the equilibrium binding constant were obtained.

[5] = target: the molecule itself; assay: SPR (BIACORE), SLAM-Ig immobilized, SLAM-Ig in solution; apparent Kd from the rate constants
Description: The equilibrium constants for SLAM/SLAM interactions were analyzed by surface plasmon resonance using a BIACORE™ (Pharmacia) instrument. An anti-SLAM Ab 7D4 was used.
as §2
SLAM-Ig/SLAM-Ig binding kinetics were measured in a similar manner. […]

[6] = target: the molecule itself; assay: cell-based or functional assay

IFN-γ production (pg/ml) by antigen-stimulated T-cell clone Th0/ChT38; no antibody 5207, control Ab 7463 [1]: 20600 pg/mL
IFN-γ production (pg/ml) by antigen-stimulated T-cell clone Th0/MoT81; no antibody 5423, control Ab 6596 [1]: 18200 pg/mL
IFN-γ production (pg/ml) by antigen-stimulated T-cell clone Th1/HY06; no antibody 5982, control Ab 5904 [1]: 21900 pg/mL
IFN-γ production (pg/ml) by antigen-stimulated T-cell clone Th1/TA20; no antibody 8374, control Ab 8070 [1]: 15400 pg/mL
IFN-γ production (pg/ml) by antigen-stimulated T-cell clone Th2/MoT72; no antibody 496, control Ab 170 [1]: 8580 pg/mL
IFN-γ production (pg/ml) by antigen-stimulated T-cell clone Th2/NP12; no antibody 962, control Ab 902 [1]: 8300 pg/mL
IFN-γ production (pg/ml) by antigen-stimulated T-cell clone Th2/NP44; no antibody 1073, control Ab 1319 [1]: 7660 pg/mL
IFN-γ production by Th2 clones, fold upregulation [1]: 5 to 17 fold
IL-4 production (pg/ml) by antigen-stimulated T-cell clone Th0/ChT38; no antibody 12907, control Ab 10102 [1]: 15000 pg/mL
IL-4 production (pg/ml) by antigen-stimulated T-cell clone Th0/MoT81; no antibody 8455, control Ab 8451 [1]: 11100 pg/mL
IL-4 production (pg/ml) by antigen-stimulated T-cell clone Th1/HY06; no antibody 48, control Ab 40 [1]: 90 pg/mL
IL-4 production (pg/ml) by antigen-stimulated T-cell clone Th1/TA20; no antibody 62, control Ab 69 [1]: 97 pg/mL
IL-4 production (pg/ml) by antigen-stimulated T-cell clone Th2/MoT72; no antibody 8805, control Ab 8542 [1]: 16500 pg/mL
IL-4 production (pg/ml) by antigen-stimulated T-cell clone Th2/NP12; no antibody 6636, control Ab 6486 [1]: 11100 pg/mL
IL-4 production (pg/ml) by antigen-stimulated T-cell clone Th2/NP44; no antibody 11617, control Ab 11738 [1]: 10400 pg/mL
anti-CD3 induced T-cell proliferation at optimal anti-CD3, fold increase [1]: 2 to 3 fold
Molecule: anti-SLAM monoclonal antibody A12 (IgG1)

Molecule: B1
fold lower binding than an equivalent concentration of mAb A12 [2]: ~5 fold
fold lower staining relative to A12 staining [3]: 5 fold
koff [4]: 0.011 s⁻¹
kon [4]: 12000 M⁻¹ s⁻¹
Kd [5]: 920 nM

Molecule: B2
proliferation of T cell clone B21 activated with SLAM/L cells, fold enhancement by cyclosporin at 2 µg/ml [6]: 2 fold
